Laboratory results reported in patent US20130089556A1 (SAMSUNG ELECTRONICS, published 2013).

B1: humanized antibody huAbF46-H1 (antibody, human IgG1, kappa, V domains shown)
VH: EVQLVESGGGLVQPGGSLRLSCAASGFTFTDYYMSWVRQAPGKGLEWLGFIRNKANGYTTEYSASVKGRFTISRDNSKNSLYLQMNSLKTEDTAVYYCARDNWFAYWGQGTLVTVSS
VL: DIVMTQSPDSLAVSLGERATINCKSSQSLLASGNQNNYLAWHQQKPGQPPKMLIIWASTRVSGVPDRFSGSGSGTDFTLTISSLQAEDVAVYYCQQSYSAPLTFGGGTKVEIKR
notes: also called hAbF46-H1
B2: chimeric antibody chAbF46 (antibody, human IgG1)
heavy: not shown
light: DILMTQSPSSLTVSAGEKVTMSCKSSQSLLASGNQNNYLAWHQQKPGRSPKMLIIWASTRVSGVPDRFIGSGSGTDFTLTINSVQAEDLAVYYCQQSYSAPLTFGAGTKLELKRTVAAPSVFIFPPSDEQLKSGTASVVCLLNNFYPREAKVQWKVDNALQSGNSQESVTEQDSKDSTYSLSSTLTLSKADYEKHKVYACEVTHQGLSSPVTKSFNRGEC
notes: Mouse AbF46 variable regions on human IgG1 constant regions
B3: humanized antibody huAbF46-H4 (antibody, human IgG1, kappa)
heavy: not shown
light: DIQMTQSPSSLSASVGDRVTITCKSSQSLLASGNQNNYLAWHQQKPGKAPKMLIIWASTRVSGVPSRFSGSGSGTDFTLTISSLQPEDFATYYCQQSYSAPLTFGQGTKVEIKRTVAAPSVFIFPPSDEQLKSGTASVVCLLNNFYPREAKVQWKVDNALQSGNSQESVTEQDSKDSTYSLSSTLTLSKADYEKHKVYACEVTHQGLSSPVTKSFNRGE
notes: also called hAbF46-H4
B4: chAbF46-U6-HC8 (antibody, human IgG1)
heavy: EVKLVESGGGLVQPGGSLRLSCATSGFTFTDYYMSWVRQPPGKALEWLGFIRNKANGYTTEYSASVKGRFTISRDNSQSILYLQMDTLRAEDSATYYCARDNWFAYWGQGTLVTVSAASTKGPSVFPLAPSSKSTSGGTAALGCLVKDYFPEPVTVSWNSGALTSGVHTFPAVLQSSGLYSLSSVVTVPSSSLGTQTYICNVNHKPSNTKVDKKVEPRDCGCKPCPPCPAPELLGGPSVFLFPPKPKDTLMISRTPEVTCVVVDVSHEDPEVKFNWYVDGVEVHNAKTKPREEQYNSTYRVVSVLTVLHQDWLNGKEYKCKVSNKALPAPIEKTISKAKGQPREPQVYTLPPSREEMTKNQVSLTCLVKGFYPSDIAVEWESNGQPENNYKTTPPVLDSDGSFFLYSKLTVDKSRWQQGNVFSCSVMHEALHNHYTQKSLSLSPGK
light: B2 light
B5: chAbF46-U7-HC6 (antibody, human IgG1)
heavy: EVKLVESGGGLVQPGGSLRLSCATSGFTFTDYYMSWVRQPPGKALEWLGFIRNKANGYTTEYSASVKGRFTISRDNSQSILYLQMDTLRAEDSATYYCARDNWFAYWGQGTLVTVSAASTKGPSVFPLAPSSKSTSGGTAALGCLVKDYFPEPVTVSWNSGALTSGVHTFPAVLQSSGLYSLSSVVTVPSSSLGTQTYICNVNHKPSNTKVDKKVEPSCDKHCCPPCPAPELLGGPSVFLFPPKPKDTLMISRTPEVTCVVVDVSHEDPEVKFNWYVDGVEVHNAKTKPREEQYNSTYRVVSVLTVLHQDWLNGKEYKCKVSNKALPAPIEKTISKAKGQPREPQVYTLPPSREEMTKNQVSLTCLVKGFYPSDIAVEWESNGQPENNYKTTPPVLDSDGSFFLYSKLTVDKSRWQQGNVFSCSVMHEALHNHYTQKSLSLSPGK
light: B2 light
B6: chAbF46-U3-HC9 (antibody, human IgG1)
heavy: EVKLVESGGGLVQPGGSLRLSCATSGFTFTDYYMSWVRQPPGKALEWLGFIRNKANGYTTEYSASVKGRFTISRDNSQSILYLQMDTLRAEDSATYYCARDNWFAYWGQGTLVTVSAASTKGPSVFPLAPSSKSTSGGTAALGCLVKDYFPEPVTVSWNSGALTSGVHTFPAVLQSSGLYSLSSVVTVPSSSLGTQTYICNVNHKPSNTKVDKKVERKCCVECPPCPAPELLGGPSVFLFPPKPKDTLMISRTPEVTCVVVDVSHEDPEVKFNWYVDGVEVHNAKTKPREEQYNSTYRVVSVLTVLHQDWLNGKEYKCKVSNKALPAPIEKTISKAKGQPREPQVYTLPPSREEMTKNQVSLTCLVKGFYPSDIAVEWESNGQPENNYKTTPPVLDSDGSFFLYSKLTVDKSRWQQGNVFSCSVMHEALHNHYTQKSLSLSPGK
light: B2 light
B7: chAbF46-U6-HC7 (antibody, human IgG1)
heavy: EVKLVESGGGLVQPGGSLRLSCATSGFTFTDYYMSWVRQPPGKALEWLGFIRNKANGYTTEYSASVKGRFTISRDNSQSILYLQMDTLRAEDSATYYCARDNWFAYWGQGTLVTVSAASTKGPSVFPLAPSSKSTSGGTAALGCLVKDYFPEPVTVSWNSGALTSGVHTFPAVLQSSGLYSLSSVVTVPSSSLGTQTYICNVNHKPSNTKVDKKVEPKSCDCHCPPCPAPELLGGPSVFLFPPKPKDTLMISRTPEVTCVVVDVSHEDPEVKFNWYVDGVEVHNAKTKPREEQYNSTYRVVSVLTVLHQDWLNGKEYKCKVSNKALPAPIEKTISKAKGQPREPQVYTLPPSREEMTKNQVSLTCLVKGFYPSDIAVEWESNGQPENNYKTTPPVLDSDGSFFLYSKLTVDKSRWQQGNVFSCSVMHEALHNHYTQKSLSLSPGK
light: B2 light
B8: chAbF46-U8-HC5 (antibody, human IgG1)
heavy: not shown
light: B2 light
B9: huAbF46-H4-U7-HC6 (antibody)
heavy: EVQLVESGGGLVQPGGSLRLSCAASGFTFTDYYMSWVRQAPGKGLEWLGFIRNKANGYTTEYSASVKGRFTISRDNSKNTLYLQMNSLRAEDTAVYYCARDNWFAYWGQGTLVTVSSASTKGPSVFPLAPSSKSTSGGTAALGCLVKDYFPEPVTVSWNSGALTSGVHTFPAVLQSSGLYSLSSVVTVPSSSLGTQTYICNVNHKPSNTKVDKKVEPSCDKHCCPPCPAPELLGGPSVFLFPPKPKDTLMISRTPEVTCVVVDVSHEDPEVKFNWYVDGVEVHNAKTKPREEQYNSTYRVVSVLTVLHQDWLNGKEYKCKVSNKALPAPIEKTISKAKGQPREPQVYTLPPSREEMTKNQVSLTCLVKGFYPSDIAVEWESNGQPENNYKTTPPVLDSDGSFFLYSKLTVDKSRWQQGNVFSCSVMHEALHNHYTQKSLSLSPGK
light: DIQMTQSPSSLSASVGDRVTITCKSSQSLLASGNQNNYLAWHQQKPGKAPKMLIIWASTRVSGVPSRFSGSGSGTDFTLTISSLQPEDFATYYCQQSYSAPLTFGQGTKVEIKRTVAAPSVFIFPPSDEQLKSGTASVVCLLNNFYPREAKVQWKVDNALQSGNSQESVTEQDSKDSTYSLSSTLTLSKADYEKHKVYACEVTHQGLSSPVTKSFNRGEC

biological target: T1, human c-Met protein (R&D Systems) (human, UniProt P08581 25-932, limits assumed); assay: SPR (printed 'Biocare'), antibody immobilised on CM5 chip, c-Met injected at 100-0.39 nM
T1 construct: also called antigen
T1 sequence (P08581 25-932 limits assumed): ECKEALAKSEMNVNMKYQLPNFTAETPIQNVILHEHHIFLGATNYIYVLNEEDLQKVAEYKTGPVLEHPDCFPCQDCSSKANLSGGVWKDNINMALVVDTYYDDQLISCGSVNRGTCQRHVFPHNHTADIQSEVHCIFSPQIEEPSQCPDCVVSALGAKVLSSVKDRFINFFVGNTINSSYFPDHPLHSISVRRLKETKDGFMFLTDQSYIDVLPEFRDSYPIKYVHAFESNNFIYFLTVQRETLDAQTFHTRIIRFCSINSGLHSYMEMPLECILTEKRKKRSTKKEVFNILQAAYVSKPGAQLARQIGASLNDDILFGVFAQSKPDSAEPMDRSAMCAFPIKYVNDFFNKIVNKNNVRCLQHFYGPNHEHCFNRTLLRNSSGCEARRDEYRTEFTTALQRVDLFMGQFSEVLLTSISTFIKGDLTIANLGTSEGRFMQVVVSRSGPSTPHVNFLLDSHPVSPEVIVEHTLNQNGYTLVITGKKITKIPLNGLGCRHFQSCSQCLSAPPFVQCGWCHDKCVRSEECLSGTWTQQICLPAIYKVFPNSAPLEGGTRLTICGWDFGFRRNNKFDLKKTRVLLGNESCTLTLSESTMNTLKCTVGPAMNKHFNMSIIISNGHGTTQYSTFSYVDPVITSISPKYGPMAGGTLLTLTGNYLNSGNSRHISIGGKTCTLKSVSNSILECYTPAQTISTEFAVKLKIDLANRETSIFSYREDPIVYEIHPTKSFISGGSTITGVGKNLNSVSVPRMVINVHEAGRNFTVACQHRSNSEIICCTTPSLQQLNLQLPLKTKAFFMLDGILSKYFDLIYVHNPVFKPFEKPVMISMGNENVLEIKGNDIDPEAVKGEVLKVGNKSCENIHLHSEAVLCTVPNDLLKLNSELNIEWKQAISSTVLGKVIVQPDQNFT
Protocol: (§1) Each of antibodies was immobilized to about 80˜110 RU on a CM5 chip, and the c-Met protein (which is an antigen) was injected at nine different concentrations within a range of about 100 nM to about 0.39 nM at a rate of 30 μl/min to obtain kₒₙ and koff values as illustrated in Table 2. KD values were calculated from the kₒₙ and koff values.

Compared with B1, B2 is lower in Kd: 1.89 to 1.97 nM for the first, 1.01 to 1.42 nM for the second.

In the case of B3, the Kd is reported as 2.05 to 2.39 nM.

Point of comparison: B1, koff 0.000655 s⁻¹. Against it:
- B2 — 1.8-fold lower, 0.000367 s⁻¹
- B3 — within 1.5-fold, 0.000696 s⁻¹

Point of comparison: B3, kon 339000 M⁻¹ s⁻¹. Against it:
- B1 — within 1.5-fold, 346000 M⁻¹ s⁻¹
- B2 — within 1.5-fold, 363000 M⁻¹ s⁻¹

biological target: T1, human c-Met protein (R&D Systems); assay: as above; remark: another data set of the same source
Protocol: as §1, with “80-110” for “80˜110”, “protein” for “protein (which is an antigen)”, “3.” for “2.”

Point of comparison: B2, Kd 1.01 nM. Against it:
- B4 — within 1.5-fold, 1.34 nM
- B5 — 1.6-fold higher, 1.66 nM
- B6 — within 1.5-fold, 1.38 nM
- B7 — 1.6-fold higher, 1.63 nM
- B8 — within 1.5-fold, 1.32 nM

Point of comparison: B5, koff 0.000862 s⁻¹. Against it:
- B2 — 2.3-fold lower, 0.000367 s⁻¹
- B4 — within 1.5-fold, 0.000626 s⁻¹
- B6 — 1.6-fold lower, 0.000554 s⁻¹
- B7 — within 1.5-fold, 0.000614 s⁻¹
- B8 — within 1.5-fold, 0.000678 s⁻¹

Point of comparison: B4, kon 469000 M⁻¹ s⁻¹. Against it:
- B2 — within 1.5-fold, 363000 M⁻¹ s⁻¹
- B5 — within 1.5-fold, 518000 M⁻¹ s⁻¹
- B6 — within 1.5-fold, 400000 M⁻¹ s⁻¹
- B7 — within 1.5-fold, 376000 M⁻¹ s⁻¹
- B8 — within 1.5-fold, 515000 M⁻¹ s⁻¹

biological target: T1, human c-Met protein (R&D Systems); assay: as above; remark: another data set of the same source
Protocol: as §1, with “antibodies shown in Table 4” for “antibodies”, “chip. The” for “chip, and the”, “protein” for “protein (which is an antigen)”, “4.” for “2.”

Point of comparison: B1, Kd 1.89 nM. Against it:
- B9 — 2-fold higher, 3.74 nM
- B3 — within 1.5-fold, 2.39 nM

Point of comparison: B9, koff 0.000981 s⁻¹. Against it:
- B1 — within 1.5-fold, 0.000655 s⁻¹
- B3 — within 1.5-fold, 0.000802 s⁻¹

Point of comparison: B9, kon 263000 M⁻¹ s⁻¹. Against it:
- B1 — within 1.5-fold, 346000 M⁻¹ s⁻¹
- B3 — within 1.5-fold, 336000 M⁻¹ s⁻¹
